From paper PMC3936742 (Nucleic Acids Research, 2013)

Molecular target: T1, Flag-MnmC(o), C-terminal oxidoreductase domain of MnmC (amino acids 250-668) (E. coli, UniProt P77182 250-668)
T1 sequence (looked up): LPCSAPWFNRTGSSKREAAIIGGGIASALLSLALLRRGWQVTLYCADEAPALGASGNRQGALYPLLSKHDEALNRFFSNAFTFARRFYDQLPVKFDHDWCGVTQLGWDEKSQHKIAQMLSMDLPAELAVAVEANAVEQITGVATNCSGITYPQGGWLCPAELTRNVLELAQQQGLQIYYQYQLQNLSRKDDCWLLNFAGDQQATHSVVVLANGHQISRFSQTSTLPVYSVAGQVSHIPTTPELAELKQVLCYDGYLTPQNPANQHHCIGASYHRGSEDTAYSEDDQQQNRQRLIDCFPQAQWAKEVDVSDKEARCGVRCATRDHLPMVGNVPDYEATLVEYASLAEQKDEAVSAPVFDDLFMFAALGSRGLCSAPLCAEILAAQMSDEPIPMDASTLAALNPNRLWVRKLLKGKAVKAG
Experiment: SPR; His-MnmC(m) captured (~600 RU) on anti-His monoclonal antibody coupled to a CM-5 chip; Flag-MnmC(o) at various concentrations in TBS buffer, 30 µl/min, 25°C; apparent equilibrium constant
Conditions: both partners purified

Kd: 87 ± 15 nM
B1: His-MnmC(m), MnmC(m) domain fused at its N-terminal end to a 6x-His-epitope (domain or fragment, E. coli, UniProt P77182 1-250, looked up)
chain: MKHYSIQPANLEFNAEGTPVSRDFDDVYFSNDNGLEETRYVFLGGNQLEVRFPEHPHPLFVVAESGFGTGLNFLTLWQAFDQFREAHPQAQLQRLHFISFEKFPLTRADLALAHQHWPELAPWAEQLQAQWPMPLPGCHRLLLDEGRVTLDLWFGDINELTSQLDDSLNQKVDAWFLDGFAPAKNPDMWTQNLFNAMARLARPGGTLATFTSAGFVRRGLQDAGFTMQKRKGFGRKREMLCGVMEQTLPL
